Experimental findings from patent US20230013784A1 (JIANGSU HENGRUI MEDICINE, published 2023) are described below.

For the assay, the target named is T1, human CEA protein on the cell surface of MKN45 human gastric cancer cells (human, UniProt P06731 35-685).
T1 construct: whole, on cells; GPI-anchored glycoprotein; also called CEACAM-5; CD66e
T1 sequence (looked up): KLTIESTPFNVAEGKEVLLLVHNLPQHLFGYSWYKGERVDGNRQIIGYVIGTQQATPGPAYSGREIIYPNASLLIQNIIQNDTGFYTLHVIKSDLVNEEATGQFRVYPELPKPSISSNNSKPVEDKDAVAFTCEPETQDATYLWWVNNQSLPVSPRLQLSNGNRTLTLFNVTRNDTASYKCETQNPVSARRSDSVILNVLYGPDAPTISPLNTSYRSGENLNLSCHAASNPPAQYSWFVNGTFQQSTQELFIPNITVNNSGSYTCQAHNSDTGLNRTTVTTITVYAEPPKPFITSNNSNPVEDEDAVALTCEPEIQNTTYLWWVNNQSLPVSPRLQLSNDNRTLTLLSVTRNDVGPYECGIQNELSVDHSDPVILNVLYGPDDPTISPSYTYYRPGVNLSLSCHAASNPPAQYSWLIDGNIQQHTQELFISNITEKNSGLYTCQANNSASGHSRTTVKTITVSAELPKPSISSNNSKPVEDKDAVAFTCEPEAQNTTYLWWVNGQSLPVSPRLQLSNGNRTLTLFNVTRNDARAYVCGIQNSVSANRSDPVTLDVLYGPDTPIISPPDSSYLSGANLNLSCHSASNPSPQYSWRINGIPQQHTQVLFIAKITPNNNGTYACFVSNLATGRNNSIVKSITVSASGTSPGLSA
Put plainly: FACS on MKN45; with/without 5 ug/ml sCEA as competitor. Here is the method:
In order to detect whether the antibody preferentially binds to CEA present on the surface of cell membrane in the presence of sCEA (as shown in SEQ ID NO:1), the inventors pre-incubated a gradient of diluted antibodies with a certain concentration of sCEA (5 μg/ml) for 30 min, then MKN45 cells were collected (human gastric cancer cells, Nanjing Kebai Biotechnology Co., Ltd., Cat #CBP60488) and loaded into 96-well plate. The gradient of diluted antibodies as well as the mixture of pre-incubated antibody and sCEA were separately added to each well, incubated at 4° C. for 60 min and centrifuged to remove the supernatant. Pre-cooled PBS containing a final concentration of 10% FBS was added to wash the cells, repeated twice. 50 μl of 1:200 diluted secondary antibody Alexa Fluor@488 goat anti-human IgG (H+L) (Lifetechologies, Cat #A11013) was added, incubated at 4° C. in dark for 45 min and centrifuged to remove the supernatant. 250 μl of pre-cooled PBS containing a final concentration of 10% FBS was added to wash the cells; repeated twice. 100 μl of pre-cooled PBS was added to each well for resuspension. Flow cytometer (FACS) was used for detection to obtain the fluorescence signal value.

B1: mAb63 (antibody, V domains shown)
VH: EVQLQQSGPELVKPGASVKMSCKASGYTFTDFYMNWVRQSHGKSLEWIGDIFPKNGNTDYNRKFKDKATLTVDKSSNTVYMEFRSLTLEDSAIYFCARSGYGNYVFDYWGQGTIFTVSS
VL: DVQMTQTPSALSASLGDRVTISCRTSQDINIYLNWYQQKPDGTVKLLIYYRSGLLSGVPSRFSGSGSGTDYSLTISNLEPEDIATYFCQQGNTLPPTFGGGTKLEIK
notes: murine hybridoma antibody
For the molecule B1, the “maximum fluorescence signal ratio (without sCEA v.s. with sCEA)” value was 1.43.

B2: mAb103 (antibody, V domains shown)
VH: QIQLVQSGPELKKPGETVKISCKASGYTFTTYGVIWVKQAPGKGLKWMGWINTYSGVPTYADDFKGRFAFSLETSASTAFLQINNLKNEDTATYFCARKKTLTTVTPWFAYWGQGTLVTVSA
VL: DLVVTQSSSASFSLGASAKLTCTLSSQHSTYTIEWYQQQPLKPPKYVMELKKDGSHSTGDGIPDRFSGSSSGADRYLTISNIQPEDEAIYICGVGNTIKEQFVYVFGGGTKVTVL
notes: murine hybridoma antibody
With B2, the “maximum fluorescence signal ratio (without sCEA v.s. with sCEA)” value stood at 1.02.

B3: mAb47 (antibody, V domains shown)
VH: QIQLVQSGPELKKPGETVKISCKASGYTFTTYGMSWVKQAPGKGLKWMGWINTYSGVPTYADDFKGRFAFSLETSASTAYLQINNLKNEDTATYFCARRGNYGRWDFDVWGTGTTVTVSS
VL: EIVLTQSPALMAASPGEKVTITCSVSSTISSSNLHWYQQKSETSPKPWIYGTSNLASGVPVRFSGSGSGTSYSLTISSMEAEDAATYYCQQWSIYPLTFGAGTKLELK
notes: murine hybridoma antibody
As to B3, the “maximum fluorescence signal ratio (without sCEA v.s. with sCEA)” value came out at 1.08.
